Laboratory results: publication PMC8689142, “Discovery of a Positive Allosteric Modulator of Cholecystokinin Action at CCK1R in Normal and Elevated Cholesterol” (Frontiers in Endocrinology, 2021)
Values belong to the molecule of their own block, whether it stands above or below them. Non-standard residues stand in square brackets, D forms with d. No end group written: not given here. Alexa 488 = Alexa Fluor 488 fluorescent dye; Nle = CCCC[C@H](N)C(=O)O

Key:
[1] = biological target: T1, type 1 cholecystokinin receptor (CCK1R) (Homo sapiens, UniProt P32238); experiment: fluorescence polarization kinetics (slowed alexa488-CCK off-rate); calcium assay fitted with operational allosteric model; format: cell-based
T1 construct: gene CCKAR; CHO-CCK1R cells and membranes
T1 sequence (P32238 1-428): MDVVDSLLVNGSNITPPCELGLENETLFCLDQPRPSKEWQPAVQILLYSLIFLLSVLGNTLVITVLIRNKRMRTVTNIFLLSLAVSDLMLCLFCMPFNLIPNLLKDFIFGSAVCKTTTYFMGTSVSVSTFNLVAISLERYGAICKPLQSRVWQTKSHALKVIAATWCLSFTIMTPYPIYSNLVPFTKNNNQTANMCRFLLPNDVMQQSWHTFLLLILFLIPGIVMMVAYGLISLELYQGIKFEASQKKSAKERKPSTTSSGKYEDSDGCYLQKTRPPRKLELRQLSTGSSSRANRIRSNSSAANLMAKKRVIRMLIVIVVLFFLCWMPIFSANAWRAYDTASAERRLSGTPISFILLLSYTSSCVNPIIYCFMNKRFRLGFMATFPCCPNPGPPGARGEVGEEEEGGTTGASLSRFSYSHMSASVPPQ

[2] = biological target: human type 1 cholecystokinin receptor (CCK1R), CHO-CCK1R cell line (human) (UniProt P32238)
[3] = biological target: T2, human type 1 cholecystokinin receptor (CCK1R), CHO-CCK1R cell line (human, UniProt P32238 1-428); experiment: fluorescence polarisation; alexa488-CCK (3.2 nM) added to CHO-CCK1R membranes in KRH buffer, pH 7.4, 0.2% bovine serum albumin; dissociation started with 1 µM unlabeled CCK-8; absence of Compound 1; conditions: one partner purified
T2 construct: type 1 cholecystokinin receptor, human, wild type; also called human CCK1R; WT CCK1R; source: CHO-K1 cell line stably expressing the receptor (CHO-CCK1R); intact cells and membranes
T2 sequence (looked up): T1 sequence (P32238 1-428)

[4] = biological target: Cynomolgus monkey CCK1R (Cynomolgus monkey)
[5] = biological target: Cynomolgus monkey CCK1R (Cynomolgus monkey); experiment: radioligand binding; radioligand competition-binding assay on intact receptor-expressing cells; radioiodinated D-Tyr-Gly-[(Nle28,31)CCK-26-33] as radioligand, unlabeled CCK as competitor; duplicates, at least three independent experiments
[6] = biological target: T3, rat type 1 CCK receptor (rat), P30551
T3 chain: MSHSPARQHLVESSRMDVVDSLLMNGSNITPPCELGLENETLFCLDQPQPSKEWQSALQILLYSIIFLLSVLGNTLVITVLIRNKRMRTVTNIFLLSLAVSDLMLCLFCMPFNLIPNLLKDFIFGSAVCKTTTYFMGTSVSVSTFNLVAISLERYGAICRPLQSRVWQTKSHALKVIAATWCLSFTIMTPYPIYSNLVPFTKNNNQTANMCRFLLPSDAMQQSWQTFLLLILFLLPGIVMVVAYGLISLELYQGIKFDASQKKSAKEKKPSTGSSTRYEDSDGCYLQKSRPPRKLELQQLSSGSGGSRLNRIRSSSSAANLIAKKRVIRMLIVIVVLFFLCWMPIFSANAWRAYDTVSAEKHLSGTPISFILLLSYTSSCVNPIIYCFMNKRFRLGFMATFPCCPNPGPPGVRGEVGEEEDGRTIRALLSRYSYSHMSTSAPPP

Molecule: C=C[C@H]1CN2CC[C@H]1C[C@@H]2CNC(=O)Nc1cccc(C(F)(F)F)c1 [Compound 1, 3-[(1S,2R,4S,5R)-5-ethenyl-1-azabicyclo[2.2.2]octan-2-yl]methyl-1-[3-(trifluoromethyl)phenyl]urea]
Kb [1]: 251 µM

pEC50 for CCK, peak intracellular calcium response in CHO cells expressing human CCK1R, + 10 µM Compound 1 [2]: 9.9 | pEC50 for CCK, peak intracellular calcium response in CHO cells expressing human CCK1R, control [2]: 9.1
Molecule: Synthetic CCK-58 (peptide)

koff [3]: 0.0217 s⁻¹ | kon [3]: 2.33e+06 M⁻¹ s⁻¹
Molecule: {Alexa 488}-[dY]GDY[Nle]GW[Nle]DF (ends and bridges not checked) [alexa^488-D-Tyr-Gly-[(Nle^28,31)CCK-26-33]]

pEC50 for CCK, peak intracellular calcium response in CHO cells expressing Cynomolgus monkey CCK1R, control [4]: 11.2 | pKi [5]: 8.6 | pEC50 for CCK, peak intracellular calcium response in CHO cells expressing rat CCK1R, + 10 µM Compound 1 [6]: 11.9
Molecule: DYMGWMDF (modifications not checked) [Synthetic CCK-26-33 (CCK-8)]
